Assay results reported in publication PMC5854407 (Nature, 2017).
Blank lines part the entries; values can stand above or below the compound they belong to.

What was measured:
[1] = molecular target: T1, hTRPV6 (Homo sapiens, UniProt Q9H1D0, R510E); test: Fura-2 AM ratiometric Ca2+ uptake in HEK cells; format: cell-based
T1 sequence (Q9H1D0 41-765 R510E): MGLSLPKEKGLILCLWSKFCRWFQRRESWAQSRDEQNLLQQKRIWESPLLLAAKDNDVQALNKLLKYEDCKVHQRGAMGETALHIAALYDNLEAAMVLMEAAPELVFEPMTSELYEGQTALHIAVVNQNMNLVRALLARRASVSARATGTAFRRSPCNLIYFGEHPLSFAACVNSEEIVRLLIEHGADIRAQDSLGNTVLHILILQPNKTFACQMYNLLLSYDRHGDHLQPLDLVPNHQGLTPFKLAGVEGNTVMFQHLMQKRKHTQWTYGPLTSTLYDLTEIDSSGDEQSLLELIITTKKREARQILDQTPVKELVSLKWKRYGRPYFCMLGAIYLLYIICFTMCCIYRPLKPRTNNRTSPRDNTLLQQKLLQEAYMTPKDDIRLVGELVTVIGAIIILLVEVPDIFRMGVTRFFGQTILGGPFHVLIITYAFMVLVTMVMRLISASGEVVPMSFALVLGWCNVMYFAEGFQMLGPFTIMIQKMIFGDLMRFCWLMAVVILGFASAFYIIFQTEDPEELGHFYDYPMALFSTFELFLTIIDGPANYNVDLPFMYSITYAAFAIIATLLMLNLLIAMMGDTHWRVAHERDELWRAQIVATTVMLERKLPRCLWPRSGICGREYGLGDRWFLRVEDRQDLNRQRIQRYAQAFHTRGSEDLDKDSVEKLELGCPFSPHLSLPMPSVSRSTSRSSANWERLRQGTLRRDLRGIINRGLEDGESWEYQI

[2] = molecular target: hTRPV6-R470E (human); test: cryo-EM structure
[3] = molecular target: rTRPV6* (rat TRPV6 construct previously used for crystallographic studies) (rat); test: cryo-EM structure

- IC50 [1]: 85 ± 5 µM
Compound: NCCOB(c1ccccc1)c1ccccc1 [2-APB]

- stoichiometry N [2]: 4
Compound: hTRPV6-R470E (natural protein)

- stoichiometry N [3]: 4
Compound: rTRPV6* (rat TRPV6 construct previously used for crystallographic studies) (natural protein)
